# Source: patent KR20220116962A (dated 2022)
# T1: GPR87(N)-Streptavidin (인간 GPR87 N-말단 세포외부위 영역과 STV 융합 항원) (human)
# T1 construct: Purified on Ni-NTA, so a His tag is implied but not described; also called GPR87-STV
# T1 chain: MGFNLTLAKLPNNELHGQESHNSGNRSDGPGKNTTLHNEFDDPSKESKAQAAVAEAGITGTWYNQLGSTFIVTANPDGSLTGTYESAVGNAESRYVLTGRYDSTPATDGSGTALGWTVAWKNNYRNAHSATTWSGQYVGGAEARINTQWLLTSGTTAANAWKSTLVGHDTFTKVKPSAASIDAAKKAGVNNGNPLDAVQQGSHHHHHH
# What was measured:
# [1] = molecular target: T2, GPR87(N)-GST (인간 GPR87 N-말단 세포외부위 영역과 GST 융합 항원) (human); test: single-clone phage ELISA after 4 rounds of biopanning
# T2 construct: also called GPR87-GST
# [2] = molecular target: T1, GPR87(N)-Streptavidin (인간 GPR87 N-말단 …); test: as above
# [3] = molecular target: T2, GPR87(N)-GST (인간 GPR87 N-말단 세포외부위 영역과 …); test: ELISA, antigen coated, IgG titrated; apparent equilibrium dissociation constant
# [4] = molecular target: T1, GPR87(N)-Streptavidin (인간 GPR87 N-말단 …); test: as above
Binder,binding result [1],binding result [2],Kd [3],Kd [4]
"A5 (scFv), phage-displayed clone (scFv) scFv: QVQLVQSGPGLVKPSETLSLTCSVSGGSMTSYYWSWVRQPPGKGLEWMGYVFHSGITNYSPSLKSRVTMSVDTSKNQFSLKLKSVTAVDTAVYYCAKKSGTSKKPIDYWGQGTTVTVSSGGGSSGGGGSGGGGSGGGGSDIVMTQSPSSLSASVGDRITITCRASQSVGTYVNWYQHKPGKAPKLLIYDASNLETGVPSRFSGSGSVTDFTLTITNLQPEDSATYYCLQHKNYPLTFGGGTKVEIKR",binds,binds,–,–
"단일클론항체 A5 (IgG) (antibody, V domains shown, also called A5 항체) VH: QVQLVQSGPGLVKPSETLSLTCSVSGGSMTSYYWSWVRQPPGKGLEWMGYVFHSGITNYSPSLKSRVTMSVDTSKNQFSLKLKSVTAVDTAVYYCAKKSGTSKKPIDYWGQGTTVTVSS VL: DIVMTQSPSSLSASVGDRITITCRASQSVGTYVNWYQHKPGKAPKLLIYDASNLETGVPSRFSGSGSVTDFTLTITNLQPEDSATYYCLQHKNYPLTFGGGTKVEIKR",–,–,13.3 nM,14.7 nM
"B1 (scFv), phage-displayed clone (scFv) scFv: EVQLVESGGGLVQPGRSLRLSCKASGFNFDEYALSWVRQAPGKGLEWVGFIRSKAYRETTEYAASVKGRCTISRDDSKSIAYLLMNSLRAEDTAVYYCARGHTPQRPYFDEWGQGTLVTVSSGGGSSGGGGSGGGGSGGGGSDIQMTQSPSFLSASVGDRITITCRASQSVGTYVNWYQQKLGKAPKLLIYTASTLQSGVPARFSGSGSGTEFTLTINGLQPEDFATYYCQQSYRPHFLTFGGGTQLTVLG",binds,binds,–,–
"단일클론항체 B1 (IgG) (antibody, V domains shown, also called B1 항체) VH: EVQLVESGGGLVQPGRSLRLSCKASGFNFDEYALSWVRQAPGKGLEWVGFIRSKAYRETTEYAASVKGRCTISRDDSKSIAYLLMNSLRAEDTAVYYCARGHTPQRPYFDEWGQGTLVTVSS VL: DIQMTQSPSFLSASVGDRITITCRASQSVGTYVNWYQQKLGKAPKLLIYTASTLQSGVPARFSGSGSGTEFTLTINGLQPEDFATYYCQQSYRPHFLTFGGGTQLTVLG",–,–,18.1 nM,19.9 nM
